According to article PMC11480844 (2024):

B1: H2-Kb / Ed10 (parent complex)
chain 1: GEQVEQRPPHLSVREGDSAFIICTYTDSATAYFYWYKQEPGAGLQLLMSVFSNVDRKEEQGLTVLLNKKDKRLSLNLTAAHPGDSAVYFCAVRGTGYQNFYFGKGTSLTVIP
chain 2: AQTIHQWPVAEIKAVGSPLSLGCTIKGKSSPNLYWYWQATGGTLQQLFYSITVGQVESVVQLNLSASRPKDDQFILSTEKLLLSHSGFYLCAWSPGYEQYFGPGTRLTVL
chain 3: not shown
chain 4: IQKTPQIQVYSRHPPENGKPNILNCYVTQFHPPHIEIQMLKNGKKIPKVEMSDMSFSKDWSFYILAHTEFTPTETDTYACRVKHDSMAEPKTVYWDRDM
chain 5: SIINFEKL
B2: H2-Kb / Ed45 (parent complex)
chain 1: GEQVEQRPPHLSVREGDSAVIICTYTDPNSYYFFWYKQEPGAGLQLLMKVFSSTEINEGQGFTVLLNKKDKQLSLNLTAAHPGDSAVYFCAVSGTNAYKVIFGKGTHLHVLP
chain 2: EAAVTQSPRSKVAVTGGKVTLSCHQTNNHDYMYWYRQDTGHGLRLIHYSYVADSTEKGDIPDGYKASRPSQENFSLILELASLSQTAVYFCASARGFQDTQYFGPGTRLLVL
chain 3: not shown
chain 4: B1 chain 4
chain 5: SIINFEKL

Variants of: B1
Assay: % of reporter cells activated (NFAT-GFP), raw
Also: test concentration or dose not given here.

Row | ratio to parent | Variant
1 | 0.717 | chain 5 S1W
2 | 1.01 | chain 5 S1H

The next lines start with the variant.

Row | Variant | ratio to parent
3 | chain 5 E6G | 0.824
4 | chain 5 E6S | 0.0168

Variants of: B2
Assay: % of reporter cells activated (NFAT-GFP), raw

Row | ratio to parent | Variant
5 | 0.0797 | chain 5 N4A
6 | 0.125 | chain 5 N4W
7 | 1.07 | chain 5 N4K
8 | 0.0786 | chain 5 N4M
9 | 0.533 | chain 5 N4R
10 | 0.0812 | chain 5 N4T
11 | 0.668 | chain 5 N4H
12 | 1.18 | chain 5 K7W
13 | 0.0786 | chain 5 S1A
14 | 0.331 | chain 5 S1Q
15 | 0.388 | chain 5 S1G
16 | 0.0549 | chain 5 S1I
17 | 0.0722 | chain 5 S1N
18 | 0.648 | chain 5 S1R
19 | 0.483 | chain 5 S1T
20 | 1.53 | chain 5 L8S
21 | 1.62 | chain 5 L8I
22 | 1.68 | chain 5 L8P
23 | 1.52 | chain 5 L8D
24 | 1.77 | chain 5 L8A
25 | 1.85 | chain 5 L8Y
26 | 1.7 | chain 5 L8W
27 | 1.52 | chain 5 L8E
28 | 1.57 | chain 5 L8G
29 | 1.87 | chain 5 L8K
30 | 1.65 | chain 5 L8M

Second part, the variant before the results:

Row | Variant | ratio to parent
31 | chain 5 I2T | 1.23
32 | chain 5 I2V | 1.48
33 | chain 5 I2H | 1.61
34 | chain 5 I2L | 2.14
35 | chain 5 I2M | 2.11
36 | chain 5 I2P | 1.32
37 | chain 5 I2C | 1.39
38 | chain 5 I2F | 1.21
39 | chain 5 I2A | 1.32
40 | chain 5 I2D | 1.34
41 | chain 5 I2K | 1.83
42 | chain 5 I2R | 1.63
43 | chain 5 E6M | 0.312
44 | chain 5 E6H | 0.541
45 | chain 5 E6A | 1.48
46 | chain 5 E6C | 0.258
47 | chain 5 E6Y | 0.198
48 | chain 5 E6K | 0.861
49 | chain 5 E6L | 0.26
50 | chain 5 E6V | 0.148
51 | chain 5 E6P | 1.12
52 | chain 5 E6S | 0.801
53 | chain 5 I3H | 2.02

Row | Variant | ratio to parent
54 | chain 5 I3M | 2.2
55 | chain 5 I3N | 1.85
56 | chain 5 I3K | 2.08
57 | chain 5 I3V | 2.18
58 | chain 5 I3A | 2.14
59 | chain 5 I3R | 2.47
60 | chain 5 I3S | 1.96
61 | chain 5 F5N | 1.23
62 | chain 5 F5I | 0.389
63 | chain 5 F5E | 1.34
64 | chain 5 F5V | 0.617
65 | chain 5 F5S | 1.09
66 | chain 5 F5A | 0.77
67 | chain 5 F5C | 1.61
68 | chain 5 F5R | 1.73
69 | chain 5 K7A | 0.925
70 | chain 5 K7E | 0.0609
71 | chain 5 K7F | 0.418
72 | chain 5 K7C | 0.0944
73 | chain 5 K7Q | 0.193
74 | chain 5 K7N | 0.639
75 | chain 5 K7L | 0.569
